From doi:10.1101/2022.06.02.494630 (bioRxiv, 2022) come the findings set out here.

This assay concerns the target T1, GST-tagged recombinant PfPHB2 (Plasmodium falciparum (3D7), UniProt Q8IJP8 1-304).
T1 sequence (looked up): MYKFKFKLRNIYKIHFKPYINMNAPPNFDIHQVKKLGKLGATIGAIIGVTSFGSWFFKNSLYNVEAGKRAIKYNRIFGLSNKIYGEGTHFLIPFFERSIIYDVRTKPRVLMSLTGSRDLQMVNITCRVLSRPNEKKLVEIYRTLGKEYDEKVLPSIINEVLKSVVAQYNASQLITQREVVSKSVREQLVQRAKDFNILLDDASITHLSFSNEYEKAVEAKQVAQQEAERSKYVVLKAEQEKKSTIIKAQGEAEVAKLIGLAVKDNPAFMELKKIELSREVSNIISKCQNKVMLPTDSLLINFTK
Nature of the assay: MST.

B1: GST-tagged recombinant PfPHB1 (natural protein, Plasmodium falciparum (3D7), UniProt Q8IBC3 1-272, looked up)
chain: MERILSSIGKLSVVAGGLSLIPYTFIYDVDGGERCVMFNRFGGVSENTFGEGSHFYVPWFQTPYIYDIKMKPKVINTTTGTRDLQIVTISLRLLFRPHTQHLPYLHSTLGPDYDERVLPSIGNEVLKAVVAKYNAESLLTQRDKISKEIRESITARAKHFNILLDDVAITHLSYGKEFAKAIEDKQVAQQESERVKFIVAKTEQEKIAAVIKAQGEAEAAKLISSAVKEYGKSLIEIRKLEAAKEIAENLSKSKNVTYFPSNSNILLNPRDF
modifications: Lysine reactive dye (Monolith Protein Labelling Kit Red-NHS 2nd Generation), in the MST only
As for B1, the Kd was found to be 136 ± 10.5 nM.
